Measured values: the supplement of paper PMC11246515
± gives the standard deviation of the averaged measurements.

Assay: total protein half-life in vivo (active degradation + dilution); higher = more stable protein
[1] = E. coli NCM3722 delta-clpP delta-lon delta-hslV, growth: N-lim chemostat, doubling time 6 h
[2] = E. coli NCM3722 delta-clpP, growth: N-lim chemostat, doubling time 6 h
[3] = E. coli NCM3722 delta-hslV, growth: N-lim chemostat, doubling time 6 h
[4] = E. coli NCM3722 delta-smpB, growth: N-lim chemostat, doubling time 6 h
[5] = wild type E. coli NCM3722, growth: C-lim chemostat, doubling time 6 h
[6] = wild type E. coli NCM3722, growth: C-lim chemostat, doubling time 12 h
[7] = wild type E. coli NCM3722, growth: N-lim chemostat, doubling time 6 h
[8] = wild type E. coli NCM3722, growth: N-lim chemostat, doubling time 12 h
[9] = wild type E. coli NCM3722, growth: P-lim chemostat, doubling time 6 h
[10] = wild type E. coli NCM3722, growth: P-lim chemostat, doubling time 12 h
[11] = E. coli NCM3722 delta-lon, growth: N-lim chemostat, doubling time 6 h
[12] = wild type E. coli NCM3722, growth: C-lim chemostat, doubling time 3 h

Row | Substance | total protein half-life in vivo [1] [h] | total protein half-life in vivo [2] [h] | total protein half-life in vivo [3] [h] | total protein half-life in vivo [4] [h] | total protein half-life in vivo [5] [h] | total protein half-life in vivo [6] [h] | total protein half-life in vivo [7] [h] | total protein half-life in vivo [8] [h] | total protein half-life in vivo [9] [h] | total protein half-life in vivo [10] [h] | total protein half-life in vivo [11] [h] | total protein half-life in vivo [12] [h]
1 | MYKQAVILLLMLFTASVSAALPARYMQTIENAAVWAQIGDKMVTVGNIRAGQIIAVEPTAASYYAFNFGFGKGFIDKGHLEPVQGRQKVEDGLGDLNKPLSNQNLVTWKDTPVYNAPSAGSAPFGVLADNLRYPILHKLKDRLNQTWYQIRIGDRLAYISALDAQPDNGLSVLTYHHILRDEENTRFRHTSTTTSVRAFNNQMAWLRDRGYATLSMVQLEGYVKNKINLPARAVVITFDDGLKSVSRYAYPVLKQYGMKATAFIVTSRIKRHPQKWNPKSLQFMSVSELNEIRDVFDFQSHTHFLHRVDGYRRPILLSRSEHNILFDFARSRRALAQFNPHVWYLSYPFGGFNDNAVKAANDAGFHLAVTTMKGKVKPGDNPLLLKRLYILRTDSLETMSRLVSNQPQG | 5.86 ± 0.059 | 5.98 ± 0.23 | 5.24 ± 0.3 | 5.73 ± 0.38 | 4.78 | 12.5 | 5.58 ± 0.86 | 11.6 ± 3 | 5.64 | 12.4 |  | 
2 | MYLYIETLKQRLDAINQLRVDRALAAMGPAFQQVYSLLPTLLHYHHPLMPGYLDGNVPKGICLYTPDETQRHYLNELELYRGMSVQDPPKGELPITGVYTMGSTSSVGQSCSSDLDIWVCHQSWLDSEERQLLQRKCSLLENWAASLGVEVSFFLIDENRFRHNESGSLGGEDCGSTQHILLLDEFYRTAVRLAGKRILWNMVPCDEEEHYDDYVMTLYAQGVLTPNEWLDLGGLSSLSAEEYFGASLWQLYKSIDSPYKAVLKTLLLEAYSWEYPNPRLLAKDIKQRLHDGEIVSFGLDPYCMMLERVTEYLTAIEDFTRLDLVRRCFYLKVCEKLSRERACVGWRRAVLSQLVSEWGWDEARLAMLDNRANWKIDQVREAHNELLDAMMQSYRNLIRFARRNNLSVSASPQDIGVLTRKLYAAFEALPGKVTLVNPQISPDLSEPNLTFIYVPPGRANRSGWYLYNRAPNIESIISHQPLEYNRYLNKLVAWAWFNGLLTSRTRLYIKGNGIVDLPKLQEMVADVSHHFPLRLPAPTPKALYSPCEIRHLAIIVNLEYDPTAAFRNQVVHFDFRKLDVFSFGENQNCLVGSVDLLYRNSWNEVRTLHFNGEQSMIEALKTILGKMHQDAAPPDSVEVFCYSQHLRGLIRTRVQQLVSECIELRLSSTRQETGRFKALRVSGQTWGLFFERLNVSVQKLENAIEFYGAISHNKLHGLSVQVETNHVKLPAVVDGFASEGIIQFFFEETQDENGFNIYILDESNRVEVYHHCEGSKEELVRDVSRFYSSSHDRFTYGSSFINFNLPQFYQIVKVDGREQVIPFRTKSIGNMPPANQDHDTPLLQQYFS | 4.23 ± 0.18 | 3.635 ± 0.028 | 1.14 ± 0.25 | 1.36 ± 0.081 | 1.19 | 1.66 ± 0.22 | 1.27 ± 0.07 | 1.72 ± 0.053 | 2.155 ± 0.0068 | 3.73 ± 0.4 | 1.04 ± 0.087 | 0.845 ± 0.015
3 | MYQDKILVRQLGLQPYEPISQAMHEFTDTRDDSTLDEIWLVEHYPVFTQGQAGKAEHILMPGDIPVIQSDRGGQVTYHGPGQQVMYVLLNLKRRKLGVRELVTLLEQTVVNTLAELGIEAHPRADAPGVYVGEKKICSLGLRIRRGCSFHGLALNVNMDLSPFLRINPCGYAGMEMAKISQWKPEATTNNIAPRLLENILALLNNPDFEYITA | 4.39 ± 0.44 | 4.08 ± 0.77 | 3.55 | 3.73 ± 0.15 | 6.03 ± 0.89 | 14.3 | 5.66 | 5.51 ± 1.4 | 5.14 ± 0.06 | 10.6 ± 0.37 | > 8 | 2.63 ± 0.15
4 | MYQPVALFIGLRYMRGRAADRFGRFVSWLSTIGITLGVMALVTVLSVMNGFERELQNNILGLMPQAILSSEHGSLNPQQLPETAVKLDGVNRVAPITTGDVVLQSARSVAVGVMLGIDPAQKDPLTPYLVNVKQTDLEPGKYNVILGEQLASQLGVNRGDQIRVMVPSASQFTPMGRIPSQRLFNVIGTFAANSEVDGYEMLVNIEDASRLMRYPAGNITGWRLWLDEPLKVDSLSQQKLPEGSKWQDWRDRKGELFQAVRMEKNMMGLLLSLIVAVAAFNIITSLGLMVMEKQGEVAILQTQGLTPRQIMMVFMVQGASAGIIGAILGAALGALLASQLNNLMPIIGVLLDGAALPVAIEPLQVIVIALVAMAIALLSTLYPSWRAAATQPAEALRYE [P0ADC3] | 6.47 ± 0.46 | 6.838 ± 0.034 | 6.01 ± 0.34 | 6.43 ± 0.65 | 5.78 ± 1.3 | 12.3 ± 0.59 | 5.8 ± 0.06 | 13.1 ± 1.6 | 6.178 ± 0.04 | 12.3 ± 1.1 | 6.53 ± 1.3 | 3.11 ± 0.068
5 | MYTLNWQPPYDWSWMLGFLAARAVSSVETVADSYYARSLAVGEYRGVVTAIPDIARHTLHINLSAGLEPVAAECLAKMSRLFDLQCNPQIVNGALGRLGAARPGLRLPGCVDAFEQGVRAILGQLVSVAMAAKLTARVAQLYGERLDDFPEYICFPTPQRLAAADPQALKALGMPLKRAEALIHLANAALEGTLPMTIPGDVEQAMKTLQTFPGIGRWTANYFALRGWQAKDVFLPDDYLIKQRFPGMTPAQIRRYAERWKPWRSYALLHIWYTEGWQPDEA | 6.48 |  |  |  | 2.85 | 4.47 | 1.34 | 1.62 | 3.45 |  |  | 2.32 ± 0.17
6 | MYYPFVRKALFQLDPERAHEFTFQQLRRITGTPFEALVRQKVPAKPVNCMGLTFKNPLGLAAGLDKDGECIDALGAMGFGSIEIGTVTPRPQPGNDKPRLFRLVDAEGLINRMGFNNLGVDNLVENVKKAHYDGVLGINIGKNKDTPVEQGKDDYLICMEKIYAYAGYIAINISSPNTPGLRTLQYGEALDDLLTAIKNKQNDLQAMHHKYVPIAVKIAPDLSEEELIQVADSLVRHNIDGVIATNTTLDRSLVQGMKNCDQTGGLSGRPLQLKSTEIIRRLSLELNGRLPIIGVGGIDSVIAAREKIAAGASLVQIYSGFIFKGPPLIKEIVTHI [P0A7E1] | 6.89 ± 0.98 | 6.3 ± 1.1 | 6.7 ± 0.85 | 6.46 ± 0.65 | 5.72 ± 0.16 | 13.1 ± 0.45 | 6.26 ± 0.34 | 12.5 ± 0.72 | 6.03 ± 0.28 | 14.2 ± 1.6 | 6.48 ± 0.29 | 3.04 ± 0.24
7 | P0AAI3 | 4.9 ± 0.24 | 5.097 ± 0.043 | 4.76 ± 0.23 | 4.46 ± 0.14 | 5.51 ± 0.52 | 10.8 ± 0.55 | 4.53 ± 0.27 | 8.44 ± 0.27 | 6.15 ± 0.37 | 10.2 ± 0.18 | 4.88 ± 0.19 | 3.11 ± 0.11
8 | P0AES2 | 4.25 ± 0.51 | 3.729 ± 0.03 | 3.64 ± 0.5 | 3.21 ± 0.19 | 5.26 ± 0.72 | 8.83 ± 0.4 | 3.14 ± 0.086 | 4.57 ± 0.082 | 5.38 ± 0.73 | 8.99 ± 0.022 | 3.41 ± 0.14 | 3.03 ± 0.049
9 | P0AGE9 | 4.58 ± 0.064 | 4.71 ± 0.71 | 4.68 ± 0.31 | 4.28 ± 0.29 | 5.43 ± 0.12 | 9.89 ± 1.2 | 4.64 ± 0.056 | 7.237 ± 0.026 | 5.85 ± 0.2 | 11.9 ± 0.51 | 5.1 ± 0.21 | 3.06 ± 0.069
